B1: poly(U) U-20 (ssRNA)
RNA: UUUUUUUUUUUUUUUUUUUU
B2: AU-rich RNA (ssRNA)
RNA: UUAUUAUUUAUUUAUUUAUU

Assays:
PthA4;CsHMG = PthA4;CsHMG (Xanthomonas citri;Citrus sinensis, UniProt A0AAI8ETU3;G9I829 1-1163;1-165, |); experiment: EMSA; ternary complex suggested by higher MW bands; […], pH 7.5 ([…], pH 7.5, 20 min; conditions: protein: recombinant;recombinant; tags: 6xHis;6xHis; label: 5' 32P
PthA4 = PthA4 (Xanthomonas citri, UniProt A0AAI8ETU3 1-1163); experiment: EMSA; 5 mM Mg2+; […], pH 7.5 ([…], pH 7.5, 20 min; conditions: protein: recombinant; tags: 6xHis; label: 5' 32P
PthA4 RD = PthA4 RD (Xanthomonas citri, UniProt A0AAI8ETU3 289-885); experiment: EMSA; 5 mM Mg2+; […], pH 7.5 ([…], pH 7.5, 20 min; conditions: protein: recombinant; label: 5' 32P
CsHMGΔNΔC [1] = biological target: T1, CsHMGΔNΔC (Citrus sinensis, UniProt G9I829 56-125); experiment: EMSA; conditions: protein: recombinant; label: 5' 32P
CsHMGΔC = CsHMGΔC (Citrus sinensis, UniProt G9I829 1-125); experiment: EMSA; conditions: protein: recombinant; label: 5' 32P
CsHMGΔN = CsHMGΔN (Citrus sinensis, UniProt G9I829 56-165); experiment: EMSA; conditions: protein: recombinant; label: 5' 32P
CsHMG [2] = biological target: T2, CsHMG (Citrus sinensis, UniProt G9I829 1-165); experiment: competition; 1-30x cold poly(U); conditions: protein: recombinant; tags: 6xHis; label: 5' 32P
CsHMGΔNΔC [3] = biological target: T1, CsHMGΔNΔC; experiment: competition; 1-30x vs poly(U) probe; conditions: protein: recombinant; label: 5' 32P (direct EMSA)
CsHMG [4] = biological target: T2, CsHMG; experiment: EMSA; 0.5 and 1.0 ug protein; conditions: protein: recombinant; tags: 6xHis; label: 5' 32P (direct EMSA)

T1 sequence (G9I829 entry or part of it mutant): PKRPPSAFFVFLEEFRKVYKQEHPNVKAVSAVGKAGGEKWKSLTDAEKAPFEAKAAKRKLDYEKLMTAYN
Sequence of CsHMGΔN (G9I829 entry or part of it mutant): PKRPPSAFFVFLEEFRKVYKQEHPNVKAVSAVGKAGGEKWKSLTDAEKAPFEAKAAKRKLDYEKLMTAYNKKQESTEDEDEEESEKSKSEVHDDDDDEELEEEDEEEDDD
Sequence of CsHMGΔC (G9I829 entry or part of it mutant): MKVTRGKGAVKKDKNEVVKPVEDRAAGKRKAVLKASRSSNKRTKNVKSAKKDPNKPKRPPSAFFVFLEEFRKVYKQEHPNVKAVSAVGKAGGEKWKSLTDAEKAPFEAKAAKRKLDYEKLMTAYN

Row | Binder | binding result (PthA4;CsHMG) | binding result (PthA4) | binding result (PthA4 RD) | binding result (CsHMGΔNΔC [1]) | binding result (CsHMGΔC) | binding result (CsHMGΔN) | binding result (CsHMG [2]) | binding result (CsHMGΔNΔC [3]) | binding result (CsHMG [4])
1 | B1 | binds | binds | binds | binds | binds | binds | binds | – | –
2 | B2 | – | – | – | – | – | – | – | no binding | no binding

Source: article PMC3285215, “The TAL Effector PthA4 Interacts with Nuclear Factors Involved in RNA-Dependent Processes Including a HMG Protein That Selectively Binds Poly(U) RNA”
